Test results as given in the supplement of paper PMC9112550, “Optimization of the antimicrobial peptide Bac7 by deep mutational scanning” (BMC Biology, 2022).

system: Escherichia coli TOP10; assay: shrunken log2 fold change of peptide-encoding DNA abundance (4.5 h post-induction vs induction); higher = less antimicrobial activity (less host growth inhibition); conditions: time post-induction: 4.5 h; library: site-saturation at positions 5, 18, 19, 20
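Note: peptides expressed intracellularly from a pBAD plasmid library in pooled LB shake-flask culture, induced with 0.3% L-arabinose, DNA abundance read by NGS, three biological replicates, DESeq2 with apeglm shrinkage.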

First: RRIRFRPPRLPRPRPRPCWVPRP
Second: RRIRTRPPRLPRPRPRPTETPRP
The “shrunken log2 fold change” value of the first is lower: -0.331 for the first, 0.171 for the second.

First: RRIRWRPPRLPRPRPRPKPSPRP
Second: RRIRYRPPRLPRPRPRPHLVPRP
The “shrunken log2 fold change” value of the first is higher: 0.512 for the first, -0.0159 for the second.

Going from RRIRGRPPRLPRPRPRPPVKPRP to RRIRFRPPRLPRPRPRPKGFPRP, the “shrunken log2 fold change” value falls from 0.678 to 0.21.

Compared with RRIRGRPPRLPRPRPRPTFGPRP, RRIRFRPPRLPRPRPRPINYPRP is lower in “shrunken log2 fold change” value: 0.404 for the first, -0.0562 for the second.

First: RRIRQRPPRLPRPRPRPYYCPRP
Second: RRIRPRPPRLPRPRPRPETCPRP
The “shrunken log2 fold change” value of the first is lower: -0.332 for the first, 0.787 for the second.

RRIRTRPPRLPRPRPRPRACPRP and RRIRSRPPRLPRPRPRPREQPRP are within 0.2 log units of each other in “shrunken log2 fold change” value: 0.608 for the first, 0.796 for the second.

RRIRWRPPRLPRPRPRPMNVPRP and RRIRMRPPRLPRPRPRPNDYPRP are within 0.2 log units of each other in “shrunken log2 fold change” value: 0.0542 for the first, -0.103 for the second.

RRIRCRPPRLPRPRPRPEIKPRP and RRIRIRPPRLPRPRPRPLSQPRP are within 0.2 log units of each other in “shrunken log2 fold change” value: 0.0171 for the first, -0.111 for the second.

Going from RRIRQRPPRLPRPRPRPLSSPRP to RRIRGRPPRLPRPRPRPNTNPRP, the “shrunken log2 fold change” value rises from -0.055 to 0.256.

First: RRIRDRPPRLPRPRPRPQFKPRP
Second: RRIRSRPPRLPRPRPRPFMLPRP
The “shrunken log2 fold change” value of the first is higher: -0.0159 for the first, -0.411 for the second.

RRIRPRPPRLPRPRPRPISAPRP and RRIRQRPPRLPRPRPRPQQVPRP are within 0.2 log units of each other in “shrunken log2 fold change” value: -0.0726 for the first, -0.0545 for the second.

First: RRIRYRPPRLPRPRPRPPHRPRP
Second: RRIRRRPPRLPRPRPRPKQVPRP
The “shrunken log2 fold change” value of the first is lower: -0.0877 for the first, 0.351 for the second.

First: RRIRNRPPRLPRPRPRPQKGPRP
Second: RRIRFRPPRLPRPRPRPRGQPRP
The “shrunken log2 fold change” value of the first is lower: 0.0289 for the first, 0.415 for the second.

First: RRIRIRPPRLPRPRPRPGGTPRP
Second: RRIRDRPPRLPRPRPRPEDWPRP
The “shrunken log2 fold change” value of the first is lower: -0.439 for the first, 1.45 for the second.

RRIRCRPPRLPRPRPRPKQEPRP and RRIRERPPRLPRPRPRPTCMPRP are within 0.2 log units of each other in “shrunken log2 fold change” value: 0.0247 for the first, -0.0554 for the second.

Compared with RRIRQRPPRLPRPRPRPTKEPRP, RRIRVRPPRLPRPRPRPQFWPRP is lower in “shrunken log2 fold change” value: 0.0425 for the first, -0.178 for the second.

RRIRKRPPRLPRPRPRPDDFPRP and RRIRKRPPRLPRPRPRPMCIPRP are within 0.2 log units of each other in “shrunken log2 fold change” value: -0.00262 for the first, -0.00174 for the second.

RRIRIRPPRLPRPRPRPPSMPRP and RRIRTRPPRLPRPRPRPEGEPRP are within 0.2 log units of each other in “shrunken log2 fold change” value: -0.206 for the first, -0.0398 for the second.

Compared with RRIRTRPPRLPRPRPRPWNMPRP, RRIRIRPPRLPRPRPRPLNTPRP is lower in “shrunken log2 fold change” value: -0.276 for the first, -0.876 for the second.

Going from RRIRRRPPRLPRPRPRPLCCPRP to RRIRPRPPRLPRPRPRPVIPPRP, the “shrunken log2 fold change” value falls from 0.293 to -0.213.

RRIRCRPPRLPRPRPRPKCIPRP and RRIRKRPPRLPRPRPRPYTDPRP are within 0.2 log units of each other in “shrunken log2 fold change” value: -0.102 for the first, -0.0224 for the second.

RRIRHRPPRLPRPRPRPWHEPRP and RRIRQRPPRLPRPRPRPCFCPRP are within 0.2 log units of each other in “shrunken log2 fold change” value: -0.0659 for the first, -0.0837 for the second.

Going from RRIRSRPPRLPRPRPRPARDPRP to RRIRFRPPRLPRPRPRPISNPRP, the “shrunken log2 fold change” value falls from 0.407 to -0.48.

Compared with RRIRLRPPRLPRPRPRPVDAPRP, RRIRSRPPRLPRPRPRPGWRPRP is higher in “shrunken log2 fold change” value: 0.243 for the first, 0.923 for the second.

Going from RRIRQRPPRLPRPRPRPFIPPRP to RRIRERPPRLPRPRPRPQWFPRP, the “shrunken log2 fold change” value rises from -0.395 to -0.166.

Going from RRIRWRPPRLPRPRPRPLTGPRP to RRIRQRPPRLPRPRPRPENGPRP, the “shrunken log2 fold change” value rises from -0.396 to -0.0161.

Compared with RRIRNRPPRLPRPRPRPPLSPRP, RRIRFRPPRLPRPRPRPQCGPRP is lower in “shrunken log2 fold change” value: 0.502 for the first, -0.0775 for the second.

First: RRIRWRPPRLPRPRPRPLQHPRP
Second: RRIRGRPPRLPRPRPRPFYGPRP
The “shrunken log2 fold change” value of the first is higher: 0.394 for the first, -0.0443 for the second.

RRIRTRPPRLPRPRPRPGIWPRP and RRIRTRPPRLPRPRPRPQCNPRP are within 0.2 log units of each other in “shrunken log2 fold change” value: -0.0153 for the first, -0.0399 for the second.

RRIRMRPPRLPRPRPRPIFMPRP and RRIRQRPPRLPRPRPRPPGEPRP are within 0.2 log units of each other in “shrunken log2 fold change” value: -0.0298 for the first, 0.119 for the second.

RRIRLRPPRLPRPRPRPQCNPRP and RRIRERPPRLPRPRPRPHWCPRP are within 0.2 log units of each other in “shrunken log2 fold change” value: -0.0192 for the first, 0.0281 for the second.

First: RRIRARPPRLPRPRPRPVMKPRP
Second: RRIRLRPPRLPRPRPRPGHQPRP
The “shrunken log2 fold change” value of the first is lower: -0.205 for the first, 0.122 for the second.

Going from RRIRGRPPRLPRPRPRPAQIPRP to RRIRCRPPRLPRPRPRPICGPRP, the “shrunken log2 fold change” value falls from 0.592 to 0.289.

Compared with RRIRGRPPRLPRPRPRPCFQPRP, RRIRWRPPRLPRPRPRPYIFPRP is lower in “shrunken log2 fold change” value: 0.106 for the first, -0.242 for the second.

RRIRTRPPRLPRPRPRPVHIPRP and RRIRMRPPRLPRPRPRPFVEPRP are within 0.2 log units of each other in “shrunken log2 fold change” value: -0.149 for the first, -0.0699 for the second.

Compared with RRIRGRPPRLPRPRPRPDNSPRP, RRIRGRPPRLPRPRPRPGMGPRP is higher in “shrunken log2 fold change” value: 0.0661 for the first, 0.963 for the second.

First: RRIRQRPPRLPRPRPRPSNAPRP
Second: RRIRKRPPRLPRPRPRPPHPPRP
The “shrunken log2 fold change” value of the first is lower: -0.198 for the first, 0.672 for the second.

Compared with RRIRDRPPRLPRPRPRPIQKPRP, RRIRERPPRLPRPRPRPLVWPRP is higher in “shrunken log2 fold change” value: -0.0081 for the first, 0.339 for the second.

RRIRSRPPRLPRPRPRPNNIPRP and RRIRYRPPRLPRPRPRPGTRPRP are within 0.2 log units of each other in “shrunken log2 fold change” value: -0.564 for the first, -0.393 for the second.

RRIRNRPPRLPRPRPRPAARPRP and RRIRNRPPRLPRPRPRPTVYPRP are within 0.2 log units of each other in “shrunken log2 fold change” value: 0.161 for the first, 0.0487 for the second.

Going from RRIRYRPPRLPRPRPRPMAHPRP to RRIRTRPPRLPRPRPRPQKHPRP, the “shrunken log2 fold change” value falls from -0.0234 to -0.459.

Going from RRIRERPPRLPRPRPRPRISPRP to RRIRMRPPRLPRPRPRPKCKPRP, the “shrunken log2 fold change” value rises from -1.36 to 0.365.

First: RRIRMRPPRLPRPRPRPLFLPRP
Second: RRIRPRPPRLPRPRPRPRNGPRP
The “shrunken log2 fold change” value of the first is lower: -0.254 for the first, -0.0237 for the second.

RRIRSRPPRLPRPRPRPCVYPRP and RRIRVRPPRLPRPRPRPTFHPRP are within 0.2 log units of each other in “shrunken log2 fold change” value: -0.0613 for the first, 0.0139 for the second.

Compared with RRIRFRPPRLPRPRPRPMMKPRP, RRIRTRPPRLPRPRPRPGAKPRP is higher in “shrunken log2 fold change” value: -0.0975 for the first, 0.524 for the second.

RRIRRRPPRLPRPRPRPQWNPRP and RRIRDRPPRLPRPRPRPRFSPRP are within 0.2 log units of each other in “shrunken log2 fold change” value: -0.153 for the first, -0.037 for the second.

RRIRMRPPRLPRPRPRPDFPPRP and RRIRCRPPRLPRPRPRPFGMPRP are within 0.2 log units of each other in “shrunken log2 fold change” value: -0.0976 for the first, -0.033 for the second.

RRIRGRPPRLPRPRPRPDSEPRP and RRIRARPPRLPRPRPRPWVGPRP are within 0.2 log units of each other in “shrunken log2 fold change” value: 0.321 for the first, 0.271 for the second.

Going from RRIRHRPPRLPRPRPRPLQVPRP to RRIRHRPPRLPRPRPRPASVPRP, the “shrunken log2 fold change” value rises from -0.28 to -0.00985.

Compared with RRIRWRPPRLPRPRPRPMNWPRP, RRIRSRPPRLPRPRPRPRSAPRP is higher in “shrunken log2 fold change” value: 0.0484 for the first, 0.392 for the second.

First: RRIRFRPPRLPRPRPRPKVTPRP
Second: RRIRMRPPRLPRPRPRPQLFPRP
The “shrunken log2 fold change” value of the first is lower: -0.2 for the first, 0.0897 for the second.

Going from RRIRYRPPRLPRPRPRPLYSPRP to RRIRVRPPRLPRPRPRPQHMPRP, the “shrunken log2 fold change” value rises from -1.15 to -0.23.

RRIRERPPRLPRPRPRPFHAPRP and RRIRWRPPRLPRPRPRPPNVPRP are within 0.2 log units of each other in “shrunken log2 fold change” value: -0.0736 for the first, 0.0153 for the second.

Compared with RRIRNRPPRLPRPRPRPLHKPRP, RRIRKRPPRLPRPRPRPMLMPRP is higher in “shrunken log2 fold change” value: -0.101 for the first, 0.322 for the second.

For RRIRTRPPRLPRPRPRPHAEPRP, the “shrunken log2 fold change” value was 0.17.
